Measured values as given in the Human Domainome abundance scans (Beltran et al. 2025).
± gives the uncertainty stated by the source.

B1: Tripartite motif-containing protein 44, residues 174 to 218; numbered along this chain, Q96DX7 (parent)
chain: VAKRKCPDHGLDLSTYCQEDRQLICVLCPVIGAHQGHQLSTLDEA

Variants of: B1
Assay: abundance fitness (aPCA) (normalised: wild type 0, dead -1); higher = more abundant; growth selection in yeast, the domain comes from the species named
Conditions: Homo sapiens

Variant | abundance fitness
V26Q | 0.074 ± 0.032
V26G | 0.002 ± 0.026
V26N | 0.062 ± 0.036
V26P | 0.029 ± 0.031
V26F | -0.052 ± 0.045
V26S | 0.084 ± 0.029
V26T | 0.054 ± 0.029
V26K | 0.113 ± 0.033
V26L | -0.025 ± 0.027
V26Y | -0.041 ± 0.038
V26E | 0.066 ± 0.028
V26C | 0.002 ± 0.032
V26A | 0.042 ± 0.026
V26W | -0.065 ± 0.029
V26R | 0.082 ± 0.027
V26D | 0.046 ± 0.031
V26M | -0.011 ± 0.033
C28P | -0.882 ± 0.068
C28K | -0.744 ± 0.062
C28A | -0.897 ± 0.043
C28F | -0.791 ± 0.083
C28E | -0.704 ± 0.043
C28I | -1.09 ± 0.11
C28R | -1 ± 0.043

Variant | abundance fitness
C28V | -1.06 ± 0.051
C28L | -1.12 ± 0.059
C28W | -1.14 ± 0.076
C28M | -1.07 ± 0.082
C28H | -0.994 ± 0.14
C28Y | -0.919 ± 0.082
C28D | -0.557 ± 0.059
C28N | -0.759 ± 0.083
C28T | -0.982 ± 0.066
R21S | 0.068 ± 0.03
R21N | 0.047 ± 0.039
R21K | 0.063 ± 0.037
R21Y | 0.001 ± 0.095
R21T | -0.037 ± 0.033
R21V | -0.205 ± 0.029
R21M | -0.016 ± 0.034
R21P | -0.691 ± 0.046
R21W | -0.24 ± 0.03
V30A | -0.011 ± 0.028
V30D | 0.001 ± 0.047
V30I | -0.032 ± 0.046
V30H | -0.046 ± 0.05
V30W | -0.159 ± 0.028
V30P | -0.369 ± 0.032

Variant | abundance fitness
V30E | 0.013 ± 0.03
V30G | -0.144 ± 0.026
V30S | 0.005 ± 0.028
V30Q | 0.045 ± 0.031
V30F | -0.133 ± 0.039
V30R | 0.019 ± 0.026
V30L | -0.076 ± 0.027
V30M | -0.008 ± 0.034
V30C | -0.073 ± 0.039
V30N | -0.057 ± 0.05
V30T | 0.051 ± 0.031
V30K | 0.096 ± 0.03
I24L | -0.068 ± 0.029
I24D | -0.427 ± 0.039
I24A | -0.121 ± 0.028
I24C | -0.043 ± 0.033
I24T | -0.052 ± 0.028
I24S | -0.31 ± 0.032
I24R | -0.171 ± 0.026
I24K | -0.138 ± 0.037
I24E | -0.457 ± 0.03
I24H | -0.312 ± 0.048
I24Y | -0.262 ± 0.049
I24F | -0.173 ± 0.047

Variant | abundance fitness
I24M | -0.041 ± 0.031
I24N | -0.407 ± 0.048
I24V | -0.051 ± 0.026
C25I | -1.11 ± 0.22
C25R | -0.728 ± 0.031
C25F | -0.926 ± 0.12
C25Y | -0.601 ± 0.12
C25L | -1.25 ± 0.1
C25E | -0.717 ± 0.041
C25D | -0.662 ± 0.072
C25P | -0.649 ± 0.054
C25H | -0.798 ± 0.088
C25V | -1.08 ± 0.055
C25M | -0.968 ± 0.079
C25K | -0.634 ± 0.043
C25G | -0.774 ± 0.031
C25Q | -0.65 ± 0.043
C25W | -1.02 ± 0.054
I31E | 0.053 ± 0.03
I31D | 0.062 ± 0.04
I31C | -0.103 ± 0.031
I31K | 0.067 ± 0.036
I31H | 0.029 ± 0.042
I31M | 0.016 ± 0.03

Variant | abundance fitness
I31G | -0.002 ± 0.026
I31A | 0.022 ± 0.028
I31L | -0.02 ± 0.028
I31F | -0.11 ± 0.043
P29I | -0.168 ± 0.049
P29S | 0.012 ± 0.031
P29W | -0.207 ± 0.03
P29R | -0.054 ± 0.027
P29F | -0.198 ± 0.047
P29V | -0.133 ± 0.026
P29A | -0.097 ± 0.027
P29K | -0.004 ± 0.039
P29E | -0.031 ± 0.028
P29L | -0.117 ± 0.029
P29M | -0.04 ± 0.034
P29T | -0.021 ± 0.036
P29D | -0.077 ± 0.034
P29N | -0.064 ± 0.05
P29G | -0.083 ± 0.026
P29Q | -0.071 ± 0.033
P29Y | -0.098 ± 0.056
P29C | -0.2 ± 0.039
P29H | -0.016 ± 0.038
L27S | -0.024 ± 0.027

Variant | abundance fitness
L27I | -0.119 ± 0.055
L27P | -0.624 ± 0.055
L27Q | 0.127 ± 0.029
L27R | 0.024 ± 0.026
L27T | -0.212 ± 0.033
L27V | -0.151 ± 0.027
L27C | -0.283 ± 0.035
L27Y | -0.059 ± 0.044
L27E | 0.063 ± 0.028
L27N | 0.055 ± 0.038
L27G | -0.25 ± 0.026
L27M | 0.039 ± 0.032
L27H | -0.069 ± 0.045
L27W | -0.216 ± 0.032
L27F | -0.137 ± 0.049
L23D | 0.081 ± 0.039
L23F | -0.163 ± 0.049
L23C | -0.116 ± 0.035
L23T | -0.001 ± 0.032
L23W | 0.001 ± 0.027
L23S | 0.014 ± 0.028
L23Q | 0.058 ± 0.031
L23E | 0.066 ± 0.03
L23I | -0.161 ± 0.075

Variant | abundance fitness
L23N | -0.09 ± 0.056
L23M | -0.004 ± 0.036
L23V | -0.048 ± 0.027
L23K | -0.041 ± 0.04
L23G | -0.001 ± 0.025
Q22S | 0.007 ± 0.033
Q22K | 0.027 ± 0.037
Q22V | -0.039 ± 0.027
Q22T | 0.06 ± 0.037
Q22C | 0.042 ± 0.048
Q22E | 0.072 ± 0.029
Q22M | 0.004 ± 0.035
Q22G | -0.109 ± 0.025
Q22F | -0.281 ± 0.048
Q22D | -0.014 ± 0.036
Q22I | -0.094 ± 0.07
Q22P | -0.726 ± 0.096
Q22Y | 0.02 ± 0.079
Q22A | -0.019 ± 0.027
Q22H | -0.044 ± 0.04
Q22W | -0.552 ± 0.032
Q22L | -0.074 ± 0.03
Q22R | -0.001 ± 0.026
